Experimental data published in PMC2779421.
Where “and” joins values, the source holds several entries; their conditions need not be identical. Equal entries are not always repeated.

How the values were obtained:
[1] = target: β-Amyloid peptide Aβ-(1–40); assay: continuous-wave EPR
[2] = target: β-Amyloid peptide Aβ-(1–40); assay: filtration

% of the slow component (larger aggregates) in the total spectrum, 5–6 h [1]: 34%
stoichiometry N [1]: 8 molecules and 15 molecules
% of the slow component (larger aggregates) in the total spectrum, retentate [2]: 34%
Substance: Spin-labeled Cys-(Aβ) (40 residue Aβ peptide variant containing an N-terminal cysteine, labeled with MTSL)
